Source: publication PMC10901769, “An anti-CRISPR that represses its own transcription while blocking Cas9-target DNA binding”
Where a chain is given by its changes, count along the chain named. Values belong to the molecule of their own block, whether it stands above or below them.

Assays:
[1] = biological target: full-length AcrIIA15 R2A mutant (Staphylococcus (identified from Staphylococcus genomes)); assay: SEC; dimerization state of wild-type or mutated AcrIIA15; Superdex 75, 20 mM Tris-HCl pH 7.5, 0.5 M NaCl
[2] = biological target: N-terminal domain of AcrIIA15 (AcrIIA15^NTD) (Staphylococcus (identified from Staphylococcus genomes)); assay: crystal structure; AcrIIA15 (full-length or NTD) with IR1 promoter DNA, mixed at 2:1.1 in 20 mM Tris pH 7.5, 100 mM NaCl; 3.15 Å and 3.10 Å
[3] = biological target: full-length AcrIIA15 (Staphylococcus (identified from Staphylococcus genomes)); assay: crystal structure; free full-length AcrIIA15; 2.34 Å
[4] = biological target: full-length AcrIIA15 (Staphylococcus (identified from Staphylococcus genomes)); assay: SEC; dimerization state of wild-type or mutated AcrIIA15; Superdex 75, 20 mM Tris-HCl pH 7.5, 0.5 M NaCl
[5] = biological target: full-length AcrIIA15 (Staphylococcus (identified from Staphylococcus genomes)); assay: crystal structure; AcrIIA15 (full-length or NTD) with IR1 promoter DNA, mixed at 2:1.1 in 20 mM Tris pH 7.5, 100 mM NaCl; 3.15 Å and 3.10 Å
[6] = biological target: full-length AcrIIA15 (Staphylococcus (identified from Staphylococcus genomes)); assay: cryo-EM structure; SaCas9-sgRNA-AcrIIA15-IR1 quaternary complex, mixed at 1:1.1:0.9:0.6, purified by SEC in 20 mM Tris pH 7.5, 0.1 M NaCl; 3.82 Å
AcrIIA15 NTD = biological target: T1, AcrIIA15 NTD (UniProt PDB:8JFR_1 1-63); assay: crystal structure; Promoter EMSA: 20 mM Tris-HCl pH 7.5, 300 mM NaCl, on ice/4 C, 30 min; SaCas9 EMSA: 20 mM Tris pH 7.5, 200 mM NaCl, 10 mM EDTA, RT; SPR: 10 mM Na2HPO4, 2 mM KH2PO4, 0.3 M NaCl; SEC: 20 mM Tris pH 7.5, 300 mM NaCl; conditions: protein: recombinant; tags: C-His6 or His6-Sumo (removed); chain copies: 2; 5' overhang 1 nt on both strands
T1 sequence: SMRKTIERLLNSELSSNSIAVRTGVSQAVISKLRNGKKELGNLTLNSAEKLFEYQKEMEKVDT

AcrIIA15 full-length [7] = biological target: T2, AcrIIA15 full-length (UniProt PDB:8JG9_3 1-171); assay: as above; conditions: protein: recombinant; tags: C-terminal His6, or His6-Sumo removed by Ulp1; chain copies: 2; 5' overhang 1 nt on both strands
T2 sequence: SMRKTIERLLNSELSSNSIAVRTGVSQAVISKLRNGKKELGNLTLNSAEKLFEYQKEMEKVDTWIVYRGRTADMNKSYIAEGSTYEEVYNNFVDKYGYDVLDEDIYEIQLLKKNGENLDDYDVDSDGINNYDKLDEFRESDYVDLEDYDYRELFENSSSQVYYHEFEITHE

AcrIIA15 full-length [8] = biological target: T2, AcrIIA15 full-length; assay: EMSA; Promoter EMSA: 20 mM Tris-HCl pH 7.5, 300 mM NaCl, on ice/4 C, 30 min; SaCas9 EMSA: 20 mM Tris pH 7.5, 200 mM NaCl, 10 mM EDTA, RT; SPR: 10 mM Na2HPO4, 2 mM KH2PO4, 0.3 M NaCl; SEC: 20 mM Tris pH 7.5, 300 mM NaCl; conditions: protein: recombinant; tags: C-terminal His6, or His6-Sumo removed by Ulp1; chain copies: 2; blunt
AcrIIA15 full-length [9] = biological target: T2, AcrIIA15 full-length; assay: SPR; Promoter EMSA: 20 mM Tris-HCl pH 7.5, 300 mM NaCl, on ice/4 C, 30 min; SaCas9 EMSA: 20 mM Tris pH 7.5, 200 mM NaCl, 10 mM EDTA, RT; SPR: 10 mM Na2HPO4, 2 mM KH2PO4, 0.3 M NaCl; SEC: 20 mM Tris pH 7.5, 300 mM NaCl; conditions: protein: recombinant; tags: C-terminal His6, or His6-Sumo removed by Ulp1; chain copies: 2; blunt
[10] = biological target: T3, SaCas9;AcrIIA15 full-length (Staphylococcus aureus;, UniProt J7RUA5;PDB:8JG9_3 1-1053;1-171, |); assay: cryo-EM; with sgRNA; AcrIIA15 dimer, two SaCas9-sgRNA; Promoter EMSA: 20 mM Tris-HCl pH 7.5, 300 mM NaCl, on ice/4 C, 30 min; SaCas9 EMSA: 20 mM Tris pH 7.5, 200 mM NaCl, 10 mM EDTA, RT; SPR: 10 mM Na2HPO4, 2 mM KH2PO4, 0.3 M NaCl; SEC: 20 mM Tris pH 7.5, 300 mM NaCl; conditions: protein: recombinant;recombinant; tags: His6-Sumo removed by Ulp1;C-terminal His6, or His6-Sumo removed by Ulp1; chain copies: 2;2; blunt
T3 sequence 1: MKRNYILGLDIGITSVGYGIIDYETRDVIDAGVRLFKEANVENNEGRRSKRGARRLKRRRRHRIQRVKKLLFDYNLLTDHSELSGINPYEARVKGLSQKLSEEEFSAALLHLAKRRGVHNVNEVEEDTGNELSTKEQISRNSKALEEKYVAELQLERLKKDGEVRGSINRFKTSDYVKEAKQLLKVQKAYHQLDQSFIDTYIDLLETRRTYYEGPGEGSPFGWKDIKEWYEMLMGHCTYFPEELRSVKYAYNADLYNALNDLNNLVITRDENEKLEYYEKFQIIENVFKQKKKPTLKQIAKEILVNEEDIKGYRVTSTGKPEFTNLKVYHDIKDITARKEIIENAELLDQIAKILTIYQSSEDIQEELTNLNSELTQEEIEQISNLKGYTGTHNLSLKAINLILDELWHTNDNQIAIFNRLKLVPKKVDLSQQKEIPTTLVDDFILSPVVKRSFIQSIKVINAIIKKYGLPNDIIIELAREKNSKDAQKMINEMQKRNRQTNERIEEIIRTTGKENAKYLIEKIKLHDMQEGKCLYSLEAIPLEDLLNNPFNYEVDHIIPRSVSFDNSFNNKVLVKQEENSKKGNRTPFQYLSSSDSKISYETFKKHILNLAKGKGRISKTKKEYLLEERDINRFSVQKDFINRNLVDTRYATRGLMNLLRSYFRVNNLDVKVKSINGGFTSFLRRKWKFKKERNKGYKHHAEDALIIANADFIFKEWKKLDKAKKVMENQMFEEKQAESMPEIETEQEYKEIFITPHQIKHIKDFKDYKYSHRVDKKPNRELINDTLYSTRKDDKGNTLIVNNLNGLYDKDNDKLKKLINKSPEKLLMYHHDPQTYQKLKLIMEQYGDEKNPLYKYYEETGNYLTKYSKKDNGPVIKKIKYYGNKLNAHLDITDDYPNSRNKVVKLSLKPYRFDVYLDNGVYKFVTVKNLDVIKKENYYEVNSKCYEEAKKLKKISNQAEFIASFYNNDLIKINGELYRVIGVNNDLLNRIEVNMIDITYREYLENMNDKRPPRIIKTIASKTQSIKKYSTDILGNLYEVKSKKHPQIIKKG
T3 sequence 2: T2 sequence

AcrIIA15 K31A = biological target: T4, AcrIIA15 K31A (UniProt PDB:8JG9_3 1-171, K32A); assay: EMSA; Promoter EMSA: 20 mM Tris-HCl pH 7.5, 300 mM NaCl, on ice/4 C, 30 min; SaCas9 EMSA: 20 mM Tris pH 7.5, 200 mM NaCl, 10 mM EDTA, RT; SPR: 10 mM Na2HPO4, 2 mM KH2PO4, 0.3 M NaCl; SEC: 20 mM Tris pH 7.5, 300 mM NaCl; conditions: protein: recombinant; tags: C-terminal His6; chain copies: 2; label: 5'-Cy3 on strand 1; blunt
T4 sequence: T2 sequence with K32A

AcrIIA15 R2A/L44A = biological target: T5, AcrIIA15 R2A/L44A (UniProt PDB:8JG9_3 1-171, R3A;L45A); assay: as above; conditions: protein: recombinant; tags: C-terminal His6; label: 5'-Cy3 on strand 1; blunt
T5 sequence: T2 sequence with R3A, L45A

AcrIIA15 K37A = biological target: T6, AcrIIA15 K37A (UniProt PDB:8JG9_3 1-171, K38A); assay: as above; conditions: protein: recombinant; tags: C-terminal His6; chain copies: 2; label: 5'-Cy3 on strand 1; blunt
T6 sequence: T2 sequence with K38A

AcrIIA15 L44A = biological target: T7, AcrIIA15 L44A (UniProt PDB:8JG9_3 1-171, L45A); assay: as above; conditions: protein: recombinant; tags: C-terminal His6; label: 5'-Cy3 on strand 1; blunt
T7 sequence: T2 sequence with L45A

- stoichiometry N [1]: 2
Molecule: full-length AcrIIA15 R2A mutant (natural protein)

- stoichiometry N [2]: 2
Molecule: N-terminal domain of AcrIIA15 (AcrIIA15^NTD) (domain or fragment)

- stoichiometry N [3]: 2
- stoichiometry N [4]: 2
- stoichiometry N [5]: 2
- stoichiometry N [6]: 2
Molecule: full-length AcrIIA15 (natural protein)

B1: IR1'' (dsDNA)
DNA 1: ATTATGACAAATGTCATAG
DNA 2: TCTATGACATTTGTCATAA
- binding result (AcrIIA15 NTD): binds
- binding result (AcrIIA15 full-length [7]): binds

B2: IR1 mutant in four base pairs (dsDNA)
DNA 1: ATAATTGTTACAAATGTAACAGAAAA
DNA 2: TTTTCTGTTACATTTGTAACAATTAT
- binding result (AcrIIA15 full-length [8]): no binding

B3: IR1 (dsDNA)
DNA 1: ATAATTATGACAAATGTCATAGAAAA
DNA 2: TTTTCTATGACATTTGTCATAATTAT
- Kd (AcrIIA15 full-length [9]): 7.49 ± 0.6 nM
- binding result [10]: binds

B4: Cy3-IR1 (dsDNA)
DNA 1: ATAATTATGACAAATGTCATAGAAAA
DNA 2: TTTTCTATGACATTTGTCATAATTAT
- binding result (AcrIIA15 K31A): no binding
- binding result (AcrIIA15 R2A/L44A): no binding
- binding result (AcrIIA15 K37A): no binding
- binding result (AcrIIA15 L44A): no binding

B5: IR2 (dsDNA)
DNA 1: TGACTTATGACGAACGTCATAATATA
DNA 2: TATATTATGACGTTCGTCATAAGTCA
- Kd (AcrIIA15 full-length [9]): 1.8 ± 0.66 nM
